The nature of this series: yeast display, Sf9 membrane polyspecificity reagent, FACS + sequencing; frameworks hold sequencing errors. The method, boiled down:
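After 36–48 hours of galactose induction, yeast (Saccharomyces cerevisiae BJ5465) displaying a synthetic nanobody library were stained at 4 °C for 1 hour with 10% biotinylated, detergent-solubilized Sf9 membrane reagent. Streptavidin microbeads enriched the stained cells before FACS sorting into low and high (top ~1%) gates on anti-HA and streptavidin fluorescence. Each clone's polyreactivity label reflects its gate of origin.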
On to “QVLLQESGGALVQAGGSLRLSCAASGTISTDIRMGWYRLAPGKEPEFVASIDGCSTTYYADSVKVRFTISRDNEKNTVYLQMNSLKPEDTAMYYCAAREATEFYLYYWGQGTQVTVSS”, for which the “polyreactivity (PSR sort gate)” value is given as “low polyreactivity”.

For the sequence “QVLLQESGGGLVQAGGSLRLGCAASGTISPAYYMGRSHQAPGKEREFVAAITYGTNTYYADSVKGRFTISRDNAKNTVYLQMNSLKPEDTAVYYCSATAGYNGAHDYWGQGTQVTVSS”, the “polyreactivity (PSR sort gate)” value is reported as “low polyreactivity”.

For “QVLLQESGGGLVQAGGSLRLSCAASGSIFLFYTMGWNRQAPVKEREFVAGITLGTTTYNADSVKGRFTISRDNVKNTVYLQKNSLKPEDTAVYYCAVAVGHYTEFWYWGQGTQVTMSS”, the “polyreactivity (PSR sort gate)” value is listed as “high polyreactivity”.

On to “QVLLQESGGLGQAGCSLPMSCAASGSISTALSMGWYRQAPGKERELVATISDGASTNYADSVKGRFTISRVNAKNTVYLQMNSLKPEDTEVYYCADQSQYRQDHRYWGQGTQVTVSS”, for which the “polyreactivity (PSR sort gate)” value is listed as “high polyreactivity”.

For “QVLLVESAAGLVQAGGSLRLSCAASGSTFQGNAMGGYRKAPGKERELVAAISRSGGSTYADSVKGRFTISRDNAKNTVYLQLNSLKPEDTAVYYCAAYSGVGYLWFDYWGQGTQVTVSS”, the “polyreactivity (PSR sort gate)” value is “low polyreactivity”.

“QVLLVESCGGLVQAGGSLRLSCAASGRIFPLYAMGWYRQAPGKERELVAAISSGGTTYYADSVKGRFTISRDNAKNTVYLQMNSLKPEDTAVYYCNVEYVISWWMYDYWGQGTQVTVSS”: the “polyreactivity (PSR sort gate)” value is listed as “low polyreactivity”.

Take “QVLLVESGGCLVQAGGILRLSCAASGIIFRSNVMGWYRQEPGKASELVAAISTGGGRTYYADSVKGRFTISRDNAKNTVYLQMNSLKPEDTAVYYCATRDIGKQWTRYYYWGQGTQVTVSS”: the “polyreactivity (PSR sort gate)” value is “high polyreactivity”.

“QVLLVESGGGLVHAGGSLRLSCAASGSISKINAMRRYRQAPGKERELVAAINTGDSTYYADSVKGRFTISRDNAKYTGYLQMNSLKPEDTAVYYCAAEGSPSGYDYWGQGTQVNVSS”: the “polyreactivity (PSR sort gate)” value is “low polyreactivity”.

Regarding “QVLLVESGGGLVQAGGPLRLSCAASGFIIRTNAMGWYREEPGKERELDAAISRRGRTDYADSVKGRFTISRDNAKNTVYLQMKSLTPEESAVYYCNAYYAIQDSVHRYYFWGQGTQGTVSS”, the “polyreactivity (PSR sort gate)” value is on record as “high polyreactivity”.

As to “QVLLVESGGGLVQAGGSLRIICAASGLTFSDYAMRWYRQAPGKERELVAGISSGGSTYYADSVKGRFTISRDNAKNTVYLQMNSLKPEDTAVYYCAATRYNRWPIKFDYWGQGTQVTVSS”, the “polyreactivity (PSR sort gate)” value is “high polyreactivity”.

As to “QVLLVESGGGLVQAGGSLRISCAASVRIVKSYAMGWYRQAPGKESELVAAISRGGRTNYADSVKGRFTISRDNAKNTVYLQMNSLKPEDTAVYYCAARFITPYDHYGYWGQGTQVTVSA”, the “polyreactivity (PSR sort gate)” value is reported as “high polyreactivity”.

For the sequence “QVLLVESGGGLVQAGGSLRLSCAASGFIFRPNAMGWYRQAPGKERELVARITYRGGSTYYADSVKGRFTISRDNAKKTVYLKMNSLKPEDTAVYYCAARAVTYAGYTYNYWGQGTQVTVSS”, the “polyreactivity (PSR sort gate)” value is “high polyreactivity”.

For the sequence “QVLLVESGGGLVQAGGSLRLSCAASGFTFQLYAMGWYRQAPGKEREIVSAIRRNGGSTYYADSVKGRFTISRDNAKNTVYLQMNSLKPDDTAVYYCAADWYSYLHGTKYGYWGQGTQVTVSS”, the “polyreactivity (PSR sort gate)” value is “high polyreactivity”.

With “QVLLVESGGGLVQAGGSLRLSCAASGRIFYSNVMGWYIQAPGKERELVAAISGRTGGTYYADSVKGRFTISRDNAKNTVYLQMNSLKPEDTAVYYCAARVIYYYGSGPYDYWGQGTQVTVSS”, the “polyreactivity (PSR sort gate)” value is given as “low polyreactivity”.

For “QVLLVESGGGLVQAGGSLRLSCAASGRTFSINAMGWDRQAPGKERELVAAITKRRSTYYADSVKGRFTISRDNAKNSVYLQMNSLKPEDTAVYYCNARYRGRVYDRFGYWGQGTQVTVSS”, the “polyreactivity (PSR sort gate)” value is on record as “high polyreactivity”.

For the sequence “QVLLVESGGGLVQAGGSLRLSCAASGSIFGQYTMGWYRQAPGKERELVAAINSSGDSTFYADSVKGRFTISRDNAKNTVYLQMNSLKPEDTAVYYCAADPYRYYFRAYGWHREGYYWGQGTQVTVSS”, the “polyreactivity (PSR sort gate)” value is given as “low polyreactivity”.

Turning to “QVLLVESGGGLVQAGGSLRLSCAASGSIFYGYPMGWYRQAPGKERELVADIRSSGGSTYYADSVKGRFTISRDNAMNTVYLQMNSLKPEDTAVYYCAADSQELHQNSDYWGQGTQVTVSS”, the “polyreactivity (PSR sort gate)” value is reported as “low polyreactivity”.

On to “QVLLVESGGGLVQAGGSLRLSCAASGSNFYRNAMGWYRQAPGKERDFVAAISRSTGRTFYADSVKGRFTISRDNAKNTVYLQMKSLQPEDTAVYYCDAAAKAGTTPTRSYWRHDSWGQGTQVSVSS”, for which the “polyreactivity (PSR sort gate)” value is recorded as “high polyreactivity”.

Take “QVLLVESGGGLVQAGGSLRLSCAASGSTFLRYTMGWYRQAPGKERELVAAINYGGGSTYYADSVKGRFTISRDNAKNTVYLQMNSLKPEDTAVYYCAAGFFRSAHGGKFYYWGQGTQVTVSS”: the “polyreactivity (PSR sort gate)” value is reported as “high polyreactivity”.

In the case of “QVLLVESGGGLVQAGGSLRLSCAASGSTFPLYAMGWYRQAPGTERELVAAITSGGGNTYYADSVMGRFTISRDKAQNTVYLQMNSLKPEDTAVYYCAAVGGYKTYYSYEYDYWGQGTQVTVSS”, the “polyreactivity (PSR sort gate)” value is recorded as “low polyreactivity”.

On to “QVLLVESGGGLVQAGGSLRLSCAASGSTFVVNTMRWYRLAPGKERELVAAISTGSSTYADSVKGRFTISRDNAKKTVYLQMNSLKPEDTAVYYCNTAFPGKYDYWGQGTQVTVSS”, for which the “polyreactivity (PSR sort gate)” value is listed as “low polyreactivity”.

For the sequence “QVLLVESGGGLVQAGGSLRLSCASSGRILGYYAKGWYRQAPGKERELVAGITYSAGRTYYADSVKGRFTISRDNSKNTVYLQINRQTPEDTAVYYCAKALVRSGSTRGTPGYSYWGQGTQVTVSS”, the “polyreactivity (PSR sort gate)” value is listed as “high polyreactivity”.

Regarding “QVLLVESGGGLVQAGGSLRVSCAASGLIFSRYTMGGYRQAPGKERELVAAISKTGSSTYYAVSVKGRFTISRDNAKNTVYLQMKSLKPEDTAVYYCATTPTGRKKGDYWGQGTQVTVSS”, the “polyreactivity (PSR sort gate)” value is “high polyreactivity”.

For “QVLLVESGGGLVQEGGSLRLSCSASGFTFDSNAMGWYRQAPGKERELVAAISTGGSTYYADSVKGRFTISRDNAKNTVYLQMNSLKPEDNAVYYCAREPPYPDTWYGYWGQGSQVTVSS”, the “polyreactivity (PSR sort gate)” value is “low polyreactivity”.

For the sequence “QVLLVESGGGVVQAGGSLRLSCASSGFTYGSYAMGWYRQAPGKERELVAGITRSSGSTYYADSVKGRFTISRDNAKITDYLQMNSLKPEDTAVYYCRQFSVWGYDYWGQGTKVTVSS”, the “polyreactivity (PSR sort gate)” value is recorded as “high polyreactivity”.

In the case of “QVLLVESRGGLVQAGGSLRLSCAASGGTFSYYAMGWYRQAPAKERELVAAISASGGSTYYADSVKGRFTISRDNAMNTVYLQRNSLKPEDTAVYYCNARYPYYFYAGNYWGQGTQVTVSS”, the “polyreactivity (PSR sort gate)” value is given as “low polyreactivity”.

As for “QVLVGESGGGLVQAGGSLRLSCAASGSTFSNYAMGWYRQAPGTERELVAVSTRGASTYYADSVKGRFTISRDNAKNTVYLQMNTLKPEDTAVYYCAASYWRYRVVHSPYRYYYWGQGTQVNVSS”, the “polyreactivity (PSR sort gate)” value was “high polyreactivity”.

Take “QVMLVESGGGLVQAGGSLRLSCAASGSTFEYYAMGWYRQAPGKERELVATISIDGRTNYADSVKGRFTISRDNAKNTVYLQMNSLNPEDTAVYYCGKRVVVWYFGTGDYWGQGTQVTVSS”: the “polyreactivity (PSR sort gate)” value is reported as “low polyreactivity”.

Consider “QVNLVESGGGLVQAGGSLRLRCAASGSIYISYAMGWYRQAPGKERELVATIRSSGGRTHYSDSVKGRFTISRDNAKNTVYLQMNSLKPEDTPVYYCHYGVYQYPQDYDYWGEGTQVTVSS”, for which the “polyreactivity (PSR sort gate)” value was “low polyreactivity”.

“QVPLVESGGGLVHAVGSLRLSCAASGSIFYPYAMGWNRKAPWKERELVARITSGGSTHYADSVKGRFTISRDNDNHNVYLHMNSLKPEDTAVYYFNADYWFVEYDYWGQGTQVTVSS”: the “polyreactivity (PSR sort gate)” value was “low polyreactivity”.

In the case of “QVPLVESGGGLVQAGGILRLSCAASGRIFLPYAMGWYRQAPGQERELVAAITSSDGSTHYADSVKGRFTISRDNAQNTVYLQMNSLKPEDTAVYYCNAARATYYYYLDDYWGQGTQVTVSS”, the “polyreactivity (PSR sort gate)” value was “low polyreactivity”.

In the case of “QVPLVESGGGLVQAGGSLRLSCAASGFTFYAYTMGWYRQAPGKERELVAAINKSGSSKYYADSVKGRFTISRDNAKNTVYLQMNSLKPEDTAVYFCNAYYRKVLGYDKMDYWGQGTQVTVSS”, the “polyreactivity (PSR sort gate)” value was “high polyreactivity”.

As to “QVPLVESGGGLVQAGGSLRLSCAASGIIFGKYTMGWYRQAPGKERELVAAISKRGGSTYYADSVKGRFTISRDNAKNTVYLQMYSLKRVDTAVYYCAAERISSYDYWGQGTQVTVSS”, the “polyreactivity (PSR sort gate)” value is listed as “high polyreactivity”.

For “QVPLVESGGGLVQAGGSLRLSCAASGLIFRTYTMGWYRQAPGKERELVATITRRGGTTYYADSVKGRFTLSRDNAKNTVYLQMNSLKPEDTAVYYCAKSPYYTWKYDYWGQGTQVTVSS”, the “polyreactivity (PSR sort gate)” value is listed as “high polyreactivity”.

For “QVPLVESGGGLVQAGGSLRLSCAASGLTFDIYTMGWYRQAPGKERELVARISTSGSRTYYADSVKGRFTISRDYAKNTVYLQMNSLIPEDTAVYYCNKDGWIRRRRGSDYWGQGTQVTVSS”, the “polyreactivity (PSR sort gate)” value is recorded as “high polyreactivity”.

For “QVPLVESGGGLVQAGGSLRLSCAASGRTFTPNGMGWYRQAPGKERELVAAITYGGGITDYADSVKGRFTISRDNAKNTVYLQMNSLKPEDTAVYYCAATTLSFEGGKYWSKYDYWGQGTQVTVSS”, the “polyreactivity (PSR sort gate)” value is on record as “low polyreactivity”.

Consider “QVPLVESGGGLVQAGGSLRLSCAASGSIFYPYAMGWYRQAPGKERELVASITWSGGSTYYADSVKGRITISRDNATNSVYRQMNSLKPEDTAVYYCAADEKLYITGYDYWGQGTQVTVSS”, for which the “polyreactivity (PSR sort gate)” value is reported as “low polyreactivity”.

“QVPLVESVGGLVQAGGRLRLSCAASGSIFGHNTMGWYREAPGKERELVAAISVSGTRTYYADSVKGRFTISRDNAKNTVYLQMNSLKPEDTAVYYCAAEISRVRQGVAWSYKYEYWGQGTQVTVSS”: the “polyreactivity (PSR sort gate)” value is given as “high polyreactivity”.

Turning to “QVPLVESVGGLVQAGGSLRLSCAASGTIFFGYAMGSYRQAPGKERDLVASISSGDTTYYADSVKGRFTISRDNAKNTVYLQMNSLKPEDTAVYYCAAREGQLWEDGDYWGQGTQVTVSS”, the “polyreactivity (PSR sort gate)” value was “low polyreactivity”.

As for “QVPLVETGGGLVQAGGSLRLSCAASGRTFNVYAMGWYRQAPGKERELVASITWDDGTTYNADSVKGRFTNSRDNAKNTVYLQMNSLKPEVTAVYYCAADGIYRGAWSTVYESPGYDYWGQGTQVTVSS”, the “polyreactivity (PSR sort gate)” value is given as “low polyreactivity”.

Turning to “QVPQQESGGGLVQAGGSLRLSCAASGTIFQLTVMGRYRQAPGKERELVSSIDYGGNTNYADIVKGRFSISRVNAKNTVYLQMNRLKPEDTSVYYFAASSDSWTTHPYWGQATQVTVSS”, the “polyreactivity (PSR sort gate)” value is on record as “low polyreactivity”.
